Consider three molecules from patent US20260139048A1 (NANJING LEGEND BIOTECH, published 2026).

Assay [1] addresses T1, cynomolgus TIGIT expressed on CHO-K1 cells (cynomolgus, UniProt A0A7N9I9V4 89-312).
T1 construct: whole, on cells; also called cynomolgus TIGIT over-expressing cell line
Kind of assay: flow cytometry on CHO-K1 cells expressing cynomolgus TIGIT. On the technique in general: In flow cytometry, cells or beads pass a laser one at a time.

In assay [2] the target is T1, cynomolgus TIGIT expressed on CHO-K1 …. Described as above. The source holds these as a separate data set.
Assay [3] deals with T2, human TIGIT expressed on CHO-K1 cells (human, UniProt Q495A1 22-244).
T2 construct: whole, on cells; also called human TIGIT-CHO-K1 cells; human TIGIT over-expressing cell line
T2 sequence (looked up): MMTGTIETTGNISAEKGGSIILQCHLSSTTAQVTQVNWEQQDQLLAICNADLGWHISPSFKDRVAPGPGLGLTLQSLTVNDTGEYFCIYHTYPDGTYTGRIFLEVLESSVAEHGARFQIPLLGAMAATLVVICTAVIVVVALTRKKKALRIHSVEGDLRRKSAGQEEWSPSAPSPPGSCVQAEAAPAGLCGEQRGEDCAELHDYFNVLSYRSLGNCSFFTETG
Kind of assay: flow cytometry on CHO-K1 cells expressing human TIGIT.

In assay [4] the target is T3, TIGIT on TIGIT-over expressing NFAT-Luc/Jurkat effector cells (GenScript reporter cell line) (UniProt Q495A1 22-244, limits assumed).
T3 sequence (looked up): T2 sequence (looked up)
Briefly: cell-based or functional assay.

The target in assay [5] is T2, human TIGIT expressed on CHO-K1 cells. Briefly: flow cytometry on CHO-K1 cells expressing human TIGIT. This is another data set of the same source.
For assay [6], the target named is T3, TIGIT on TIGIT-over expressing …. Briefly: cell-based or functional assay. The source holds these as a separate data set.
Assay [7] concerns the target T4, His-tagged cynomolgus TIGIT (cynomolgus, UniProt A0A7N9I9V4 89-209).
T4 construct: SPR analyte; also called cynomolgus TIGIT protein; not shown: His tag
Briefly: SPR (Biacore T200), antibody captured, His-tagged TIGIT analyte. On the technique in general: Surface plasmon resonance follows binding to a sensor surface in real time, without labels.

In assay [8] the target is T5, His-tagged human TIGIT (human, UniProt Q495A1 22-141).
T5 construct: SPR analyte; also called human TIGIT protein; not shown: His tag
T5 sequence: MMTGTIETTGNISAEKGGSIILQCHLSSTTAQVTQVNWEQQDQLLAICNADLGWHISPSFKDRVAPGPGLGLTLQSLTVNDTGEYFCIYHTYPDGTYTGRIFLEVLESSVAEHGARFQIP
The description is as above.

Assay [9] deals with T4, His-tagged cynomolgus TIGIT. The assay is described as above. This is another data set of the same source.
Assay [10] has as its target T5, His-tagged human TIGIT. The description is as above. This is another data set of the same source.
For assay [11], the target named is T2, human TIGIT expressed on CHO-K1 cells. Briefly: flow cytometry competition: biotinylated CD155-Fc on human TIGIT-CHO-K1 cells.
For assay [12] the target is unchanged. Described as above. This is another data set of the same source.

Read-outs that look alike come from different tables or passages of the source.

T1 sequence (A0A7N9I9V4 entry or part of it): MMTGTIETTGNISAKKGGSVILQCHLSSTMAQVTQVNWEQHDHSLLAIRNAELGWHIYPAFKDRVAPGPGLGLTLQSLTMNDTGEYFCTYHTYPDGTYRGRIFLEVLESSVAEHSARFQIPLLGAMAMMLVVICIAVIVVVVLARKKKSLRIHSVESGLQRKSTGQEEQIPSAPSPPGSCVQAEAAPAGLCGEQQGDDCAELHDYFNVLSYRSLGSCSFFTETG
T4 sequence (A0A7N9I9V4 entry or part of it): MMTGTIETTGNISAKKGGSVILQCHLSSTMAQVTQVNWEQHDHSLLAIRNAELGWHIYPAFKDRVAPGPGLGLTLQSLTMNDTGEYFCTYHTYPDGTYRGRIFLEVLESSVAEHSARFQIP

B1: 4.1D3 (anti-TIGIT positive control antibody) (antibody, V domains shown)
VH: QVQLQQSGPGLVKPSQTLSLTCAISGDSVSSNSAAWNWIRQSPSRGLEWLGKTYYRFKWYSDYAVSVKGRITINPDTSKNQFSLQLNSVTPEDTAVFYCTRESTTYDLLAGPFDYWGQGTLVTVSS
VL: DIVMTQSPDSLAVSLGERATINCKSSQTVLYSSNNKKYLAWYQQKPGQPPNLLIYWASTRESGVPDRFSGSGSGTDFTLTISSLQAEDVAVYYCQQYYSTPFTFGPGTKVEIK
As a reminder, the EC50 is the concentration needed to bring the measured effect to its halfway point. For orientation: Kd means the constant that tells how readily two partners part at equilibrium. In general, koff refers to the first-order rate constant of dissociation. Low readings indicate slow dissociation, high ones fast dissociation. One may read the kon as the rate constant with which the complex forms. The low end stands for slower complex formation, the high end for faster complex formation. As a reminder, the IC50 is the point on the concentration scale where inhibition reaches its midpoint. A high value points to weaker potency in that assay. On to B1, for which the EC50 was found to be 2.77 nM in [1]; 2.35 nM in assay [2]; 1.05 nM in assay [3]; 9.28 nM in assay [4]; 0.95 nM in assay [5]; 9.69 nM in [6]. The results for the “Bottom (RLU)” value in [4] and in assay [6] were 12600 RLU and 55300 RLU, respectively. Moreover, the “Top (RLU)” value in assay [4] worked out at 44200 RLU; in [6], 142000 RLU. Besides, the Kd in assay [7] worked out at 5.4 nM; with His-tagged human TIGIT [8], 0.065 nM; in assay [9], 3 nM; with His-tagged human TIGIT [10], 0.055 nM. Moreover, the koff in [7] amounted to 0.0011 s⁻¹; with His-tagged human TIGIT [8], 4.3e-05 s⁻¹; in assay [9], 0.00083 s⁻¹; in the assay with His-tagged human TIGIT [10], 3.5e-05 s⁻¹. The kon was found to be 200000 M⁻¹ s⁻¹ in assay [7], 660000 M⁻¹ s⁻¹ with His-tagged human TIGIT [8], 270000 M⁻¹ s⁻¹ in assay [9] and 630000 M⁻¹ s⁻¹ with His-tagged human TIGIT [10]. Also, the half-maximal inhibitory concentration (IC50) was determined as 0.95 nM in [11] and 1.4 nM in [12].

B2: TIGIT-94 chimeric antibody (antibody, human IgG1, kappa, V domains shown)
VH: EVKLVESGGGLVKPGGSLKLSCAASGFTFSTYTMSWVRQTPEKRLEWVATISSGGTYTHYPDSVKGRFTISRDNAKNTLYLQMSSLKSEDTAMYYCTRWFLSLYAMDYWGQGTSVTVSS
VL: DIVMTQSTSSLSASLGDRVTISCRASQDINNFLNWYQQKPAGTVDLLIYYTSRLHSGVPSRFSGSGSGTDYSLTISNLDQEDIATYFCQQGNTFPYTFGGGTRLEIKR
notes: Full-length chimeric IgG1 kappa
In assay [1], B2 displayed an EC50 of 0.74 nM. Besides, in assay [4], the “Bottom (RLU)” value stood at 9960 RLU, the “EC50” value amounted to 92.8 nM and the “Top (RLU)” value was determined as 59800 RLU. In addition, in assay [5], the EC50 is 0.51 nM. Moreover, in assay [7], the Kd came to 7.7 nM, the koff amounted to 0.0075 s⁻¹ and the kon was determined as 980000 M⁻¹ s⁻¹. In the assay with His-tagged human TIGIT [8], this molecule gave a Kd of 1.6 nM, a koff of 0.0019 s⁻¹ and a kon of 1.2e+06 M⁻¹ s⁻¹. Moreover, the IC50 in assay [12] amounted to 0.72 nM.

B3: TIGIT-15 chimeric antibody (antibody, human IgG1, kappa, V domains shown)
VH: DVQLVESGGGLVQPGGSLKLSCAASGFTFSSYGMSWVRQTPDRRLELVATINNNGGSTYYPDSVKGRFTISRDNARNTLYLQMSSLKSEDTAMYYCATRTGTEILGFDFWGQGTTLTVSS
VL: DIVLTQSHKFMSTSLGDRVSITCKASQDVSTAVAWYQQKPGQSPKLLIYWASSRHTGVPDRFTGSRSGPDYTLTISSVQAEDLALYYCQQQYSTPWTFGGGTKLEIKR
notes: as for B2
Molecule B3 gave an EC50 in assay [1] of 3.53 nM. For the same molecule, in assay [4], the “Bottom (RLU)” value turned out to be 7720 RLU, the “EC50” value is 17.4 nM and the “Top (RLU)” value came to 51900 RLU. The molecule further yielded an EC50 in assay [5] of 1.03 nM. In [7], this molecule yielded a Kd of 1.1 nM, a koff of 0.0002 s⁻¹ and a kon of 180000 M⁻¹ s⁻¹. In the assay with His-tagged human TIGIT [8], binding was put at a Kd of 0.19 nM, the koff was determined as 0.00016 s⁻¹ and the kon is 860000 M⁻¹ s⁻¹. Besides, the IC50 in assay [12] came to 1.07 nM.
